From IntAct's records for PubMed 25517094

B1: Muscarinic acetylcholine receptor M4 (Homo sapiens), P08173 (parent)
chain: MANFTPVNGSSGNQSVRLVTSSSHNRYETVEMVFIATVTGSLSLVTVVGNILVMLSIKVNRQLQTVNNYFLFSLACADLIIGAFSMNLYTVYIIKGYWPLGAVVCDLWLALDYVVSNASVMNLLIISFDRYFCVTKPLTYPARRTTKMAGLMIAAAWVLSFVLWAPAILFWQFVVGKRTVPDNQCFIQFLSNPAVTFGTAIAAFYLPVVIMTVLYIHISLASRSRVHKHRPEGPKEKKAKTLAFLKSPLMKQSVKKPPPGEAAREELRNGKLEEAPPPALPPPPRPVADKDTSNESSSGSATQNTKERPATELSTTEATTPAMPAPPLQPRALNPASRWSKIQIVTKQTGNECVTAIEIVPATPAGMRPAANVARKFASIARNQVRKKRQMAARERKVTRTIFAILLAFILTWTPYNVMVLVNTFCQSCIPDTVWSIGYWLCYVNSTINPACYALCNATFKKTFRHLLLCQYRNIGTAR
B2: "D(4) dopamine receptor" (Mus musculus), P51436 (parent)
chain: MGNSSATEDGGLLAGRGPESLGTGAGLGGAGAAALVGGVLLIGLVLAGNSLVCVSVASERTLQTPTNYFIVSLAAADLLLAVLVLPLFVYSEVQGGVWLLSPRLCDTLMAMDVMLCTASIFNLCAISVDRFVAVTVPLRYNQQGQCQLLLIAATWLLSAAVASPVVCGLNDVPGRDPAVCCLENRDYVVYSSVCSFFLPCPLMLLLYWATFRGLRRWEAARHTKLHSRAPRRPSGPGPPVSDPTQGPFFPDCPPPLPSLRTSPSDSSRPESELSQRPCSPGCLLADAALPQPPEPSSRRRRGAKITGRERKAMRVLPVVVGAFLVCWTPFFVVHITRALCPACFVSPRLVSAVTWLGYVNSALNPIIYTIFNAEFRSVFRKTLRLRC
B3: "D(3) dopamine receptor" (Homo sapiens), P35462-1 (parent)
chain: MASLSQLSGHLNYTCGAENSTGASQARPHAYYALSYCALILAIVFGNGLVCMAVLKERALQTTTNYLVVSLAVADLLVATLVMPWVVYLEVTGGVWNFSRICCDVFVTLDVMMCTASILNLCAISIDRYTAVVMPVHYQHGTGQSSCRRVALMITAVWVLAFAVSCPLLFGFNTTGDPTVCSISNPDFVIYSSVVSFYLPFGVTVLVYARIYVVLKQRRRKRILTRQNSQCNSVRPGFPQQTLSPDPAHLELKRYYSICQDTALGGPGFQERGGELKREEKTRNSLSPTIAPKLSLEVRKLSNGRLSTSLKLGPLQPRGVPLREKKATQMVAIVLGAFIVCWLPFFLTHVLNTHCQTCHVSPELYSATTWLGYVNSALNPVIYTTFNIEFRKAFLKILSC

Variants of: B1
Conditions: with SH3GL1, Q99961-1
Target sequence in this assay (Q99961 whole entry): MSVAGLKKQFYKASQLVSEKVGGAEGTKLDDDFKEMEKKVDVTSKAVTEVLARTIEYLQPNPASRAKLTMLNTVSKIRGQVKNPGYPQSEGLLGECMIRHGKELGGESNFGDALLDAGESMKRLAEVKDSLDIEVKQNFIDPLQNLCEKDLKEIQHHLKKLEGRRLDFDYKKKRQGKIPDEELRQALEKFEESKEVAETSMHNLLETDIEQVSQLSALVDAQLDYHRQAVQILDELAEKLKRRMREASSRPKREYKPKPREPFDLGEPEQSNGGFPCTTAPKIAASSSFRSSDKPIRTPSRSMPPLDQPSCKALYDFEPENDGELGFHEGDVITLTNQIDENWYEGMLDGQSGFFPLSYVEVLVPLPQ

Variant | effect of a mutation on the interaction
K255E;K256E | decreasing interaction strength
R230E | decreasing interaction strength
P330E | decreasing interaction strength

Variants of: B2
Conditions: with SH3GL1, Q99961-1
Target sequence in this assay (Q99961 whole entry): as above

Variant | effect of a mutation on the interaction
P230A;P233A | decreasing interaction strength
R231D;R232E | disrupting interaction strength

Variants of: B3
Conditions: with SH3GL1, Q99961-1
Target sequence in this assay (Q99961 whole entry): as above

Variant | effect of a mutation on the interaction
K293E | decreasing interaction strength
R318E | decreasing interaction strength
